# pKd: −log10 of the molar value.
# How the values were obtained:
# HLA-B*27:05 [1] = experiment: IEDB peptide-MHC binding, purified MHC/competitive/fluorescence; filed as Kd, often an IC50 or EC50 that approximates it; ≥ and ≤ were set here for values at or beyond the usual limits of such assays
# HLA-A*26:01 [2] = experiment: IEDB peptide-MHC binding, purified MHC/direct/fluorescence; filed as Kd, often an IC50 or EC50 that approximates it; ≥ and ≤ were set here for values at or beyond the usual limits of such assays; conditions: source organism: Vibrio cholerae V52
# HLA-A*26:02 = experiment: as above
# HLA-A*02:01 = experiment: as above
# HLA-A*02:03 = experiment: as above; conditions: source organism: Influenza A virus (A/Taiwan/2/2006(H1N1))
# HLA-B*08:01 = experiment: as above; conditions: source organism: Influenza A virus (A/camel/Mongolia/1982(H1N1))
# HLA-B*15:01 = experiment: as above
# HLA-B*15:09 = experiment: as above
# HLA-A*01:01 = experiment: as above
# HLA-A*11:01 = experiment: as above; conditions: source organism: Influenza A virus (A/camel/Mongolia/1982(H1N1))
# HLA-B*07:02 = experiment: as above
# HLA-A*02:11 = experiment: as above
# HLA-B*18:01 [3] = experiment: as above
# HLA-A*03:01 [4] = experiment: as above
# HLA-B*44:02 = experiment: as above
# HLA-B*58:01 = experiment: as above
# HLA-A*02:12 [5] = experiment: as above
# HLA-B*46:01 = experiment: as above
# HLA-B*27:05 [6] = experiment: as above
# HLA-A*02:06 = experiment: as above; conditions: source organism: Influenza A virus (A/Taiwan/2/2006(H1N1))
# HLA-A*24:02 [7] = experiment: as above; conditions: source organism: Influenza A virus (A/camel/Mongolia/1982(H1N1))
# HLA-A*31:01 [8] = experiment: as above
# HLA-B*40:01 [9] = experiment: as above
# HLA-B*40:01 [10] = experiment: IEDB peptide-MHC binding, purified MHC/competitive/fluorescence; filed as Kd, often an IC50 or EC50 that approximates it; ≥ and ≤ were set here for values at or beyond the usual limits of such assays
# HLA-C*07:02 = experiment: IEDB peptide-MHC binding, purified MHC/direct/fluorescence; filed as Kd, often an IC50 or EC50 that approximates it; ≥ and ≤ were set here for values at or beyond the usual limits of such assays
# HLA-B*39:01 [11] = experiment: as above
# HLA-B*48:01 = experiment: as above; conditions: source organism: Lassa virus Josiah
# HLA-B*57:01 = experiment: as above
# HLA-A*69:01 = experiment: as above; conditions: source organism: Lassa virus Josiah
# HLA-A*24:02 [12] = experiment: IEDB peptide-MHC binding, purified MHC/competitive/fluorescence; filed as Kd, often an IC50 or EC50 that approximates it; ≥ and ≤ were set here for values at or beyond the usual limits of such assays
# HLA-C*15:02 = experiment: IEDB peptide-MHC binding, purified MHC/direct/fluorescence; filed as Kd, often an IC50 or EC50 that approximates it; ≥ and ≤ were set here for values at or beyond the usual limits of such assays
# HLA-C*14:02 = experiment: as above
# HLA-C*06:02 = experiment: as above; conditions: source organism: Toxoplasma gondii
# HLA-B*39:01 [13] = experiment: IEDB peptide-MHC binding, purified MHC/competitive/fluorescence; filed as Kd, often an IC50 or EC50 that approximates it; ≥ and ≤ were set here for values at or beyond the usual limits of such assays; conditions: source organism: Toxoplasma gondii
# HLA-A*26:01 [14] = experiment: as above; conditions: source organism: Toxoplasma gondii
# HLA-B*18:01 [15] = experiment: as above; conditions: source organism: Toxoplasma gondii
# HLA-A*03:01 [16] = experiment: as above; conditions: source organism: Toxoplasma gondii
# HLA-A*02:19 [17] = experiment: as above; conditions: source organism: Toxoplasma gondii
# HLA-A*02:12 [18] = experiment: as above; conditions: source organism: Toxoplasma gondii
# HLA-B*27:03 [19] = experiment: as above; conditions: source organism: Toxoplasma gondii
# HLA-A*31:01 [20] = experiment: as above; conditions: source organism: Toxoplasma gondii
# HLA-A*24:03 = experiment: IEDB peptide-MHC binding, purified MHC/direct/fluorescence; filed as Kd, often an IC50 or EC50 that approximates it; ≥ and ≤ were set here for values at or beyond the usual limits of such assays; conditions: source organism: Yersinia enterocolitica subsp. enterocolitica 8081
# HLA-A*02:19 [21] = experiment: as above; conditions: source organism: Yersinia enterocolitica subsp. enterocolitica 8081
# HLA-B*15:17 = experiment: as above; conditions: source organism: Yersinia enterocolitica subsp. enterocolitica 8081
# HLA-B*27:03 [22] = experiment: as above; conditions: source organism: Yersinia enterocolitica subsp. enterocolitica 8081
# [23] = source organism: Influenza A virus (A/camel/Mongolia/1982(H1N1))
# [24] = source organism: Influenza A virus (A/Taiwan/2/2006(H1N1))
# [25] = source organism: Influenza A virus (A/Harbin/1/1988(H1N2))
# [26] = source organism: Lassa virus Josiah
# [27] = source organism: Toxoplasma gondii
# [28] = source organism: Yersinia enterocolitica subsp. enterocolitica 8081
# [29] = source organism: Vibrio vulnificus YJ016
sequence,measurement,setting,value
AREIRDQGY,pKd,HLA-B*27:05 [1]; source organism: Escherichia coli 536,≤ 4.70
DIIWHLNDL,pKd,HLA-A*26:01 [2],6.32
same,pKd,HLA-A*26:02; source organism: Vibrio cholerae V52,8.52
ELDEIGEDV,pKd,HLA-A*02:01; source organism: Influenza A virus (A/Puerto Rico/8/34/Mount Sinai(H1N1)),5.61
same,pKd,HLA-A*02:03,≤ 5.30
same,pKd,HLA-B*08:01,≤ 4.70
same,pKd,HLA-B*15:01; [23],≤ 4.70
same,pKd,HLA-B*15:09; [24],≤ 4.70
same,pKd,HLA-A*01:01; [23],≤ 4.70
same,pKd,HLA-A*11:01,≤ 4.70
same,pKd,HLA-B*07:02; [23],≤ 4.70
same,pKd,HLA-A*02:11; [24],6.87
same,pKd,HLA-B*18:01 [3]; [23],≤ 4.70
same,pKd,HLA-A*03:01 [4]; [23],≤ 4.70
same,pKd,HLA-B*44:02; [23],≤ 4.70
same,pKd,HLA-B*58:01; [23],≤ 4.70
same,pKd,HLA-A*02:12 [5]; [24],5.82
same,pKd,HLA-B*46:01; [23],≤ 4.70
same,pKd,HLA-B*27:05 [6]; [23],≤ 4.70
same,pKd,HLA-A*02:06,≤ 4.70
same,pKd,HLA-A*24:02 [7],≤ 4.70
same,pKd,HLA-A*31:01 [8]; [23],≤ 4.70
same,pKd,HLA-B*40:01 [9]; [23],≤ 4.70
EVHTWTEQY,pKd,HLA-A*26:02; source organism: dengue virus type 3,≥ 9.00
GEINGEHVP,pKd,HLA-B*40:01 [10]; source organism: Escherichia coli B7A,7.06
GRINYYWTL,pKd,HLA-C*07:02; [25],7.60
same,pKd,HLA-B*27:05 [1]; [25],7.31
LEALSPPLL,pKd,HLA-B*40:01 [10]; source organism: Escherichia coli E22,8.26
LEVSFGSVI,pKd,HLA-B*40:01 [10]; source organism: Salmonella enterica subsp. enterica serovar Typhi,8.46
NHYLCLNCL,pKd,HLA-A*02:01; [26],≤ 4.70
same,pKd,HLA-B*15:01; [26],≤ 4.70
same,pKd,HLA-B*15:09; source organism: Mammarenavirus lassaense,6.37
same,pKd,HLA-B*39:01 [11]; [26],7.59
same,pKd,HLA-A*01:01; [26],≤ 4.70
same,pKd,HLA-B*48:01,≤ 4.70
same,pKd,HLA-B*07:02; [26],≤ 4.70
same,pKd,HLA-A*03:01 [4]; [26],≤ 4.70
same,pKd,HLA-B*44:02; [26],≤ 4.70
same,pKd,HLA-B*58:01; [26],≤ 4.70
same,pKd,HLA-B*46:01; [26],≤ 4.70
same,pKd,HLA-B*57:01; [26],≤ 4.70
same,pKd,HLA-B*27:05 [6]; [26],≤ 4.70
same,pKd,HLA-A*31:01 [8]; [26],≤ 4.70
same,pKd,HLA-B*40:01 [9]; [26],≤ 4.70
same,pKd,HLA-A*69:01,≤ 4.70
RLGKGYMF,pKd,HLA-A*24:02 [12]; source organism: Influenza A virus (A/Fort Monmouth/1/1947-mouse adapted(H1N1)),7.49
RTWFYRTEF,pKd,HLA-C*15:02; [27],6.90
same,pKd,HLA-C*14:02; [27],6.82
same,pKd,HLA-C*06:02,≤ 4.70
same,pKd,HLA-B*39:01 [13],≤ 4.70
same,pKd,HLA-A*26:01 [14],≤ 4.70
same,pKd,HLA-B*18:01 [15],≤ 4.70
same,pKd,HLA-A*03:01 [16],≤ 4.70
same,pKd,HLA-A*02:19 [17],≤ 4.70
same,pKd,HLA-A*02:12 [18],≤ 4.70
same,pKd,HLA-B*27:03 [19],≤ 4.70
same,pKd,HLA-A*31:01 [20],7.58
TRVTNNVYL,pKd,HLA-B*15:09; source organism: Variola virus,5.39
same,pKd,HLA-B*39:01 [11]; source organism: Camelpox virus M-96,7.70
YIYDGKVNY,pKd,HLA-A*24:03,≤ 4.70
same,pKd,HLA-B*39:01 [11]; [28],≤ 4.70
same,pKd,HLA-A*02:11; [28],≤ 4.70
same,pKd,HLA-B*18:01 [3]; [28],≤ 4.70
same,pKd,HLA-A*02:19 [21],≤ 4.70
same,pKd,HLA-A*02:12 [5]; [28],≤ 4.70
same,pKd,HLA-B*15:17,8.52
same,pKd,HLA-B*57:01; [28],≤ 4.70
same,pKd,HLA-B*27:03 [22],≤ 4.70
YYGRWVHEF,pKd,HLA-C*15:02; [29],≤ 4.70
same,pKd,HLA-C*07:02; [29],7.34
same,pKd,HLA-C*14:02; [29],7.60
same,pKd,HLA-A*24:02 [12]; [29],≥ 10.00

# From the Immune Epitope Database (IEDB)
